To fix the notation:
B1: TPR t1 (parent)
chain: GACCAAUCUGCCCUCAGAGCUCGAGAACAUCUUCGGAUGCAGAGGAGGCAGGCUUCGGUGGCGCGAUAGCGCCAACGUCCUCAACCUCCAAUGCAUCCCACCACAUGAUGAUGCCUGAAGAGCCUUGGUUUUUUG

This data set covers variants of B1. Kind of data set: polymerase ribozyme fitness, log enrichment relative to wild type (log ratio); higher = more active; in vitro selection for triplet polymerase activity. The method, boiled down:
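One round of in vitro selection, in triplicate, was applied to PCR-built, transcribed mutant libraries of each subunit of a heterodimeric triplet polymerase ribozyme. The steps were annealing with a biotinylated primer, partner subunit and triplets, incubation frozen at −7 °C, gel excision of extended constructs, streptavidin-bead capture and RT-PCR. Fitness is the logarithm, base 2, of genotype enrichment over wild-type enrichment from inverse-variance-weighted replicate averages of Illumina-sequenced inputs and outputs, keeping genotypes with ≥10 input reads and ≥1 read per output.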
On to C22G C104A, for which the “polymerase ribozyme fitness (log ratio)” value is -5.33.

As to G23A G36A, the “polymerase ribozyme fitness (log ratio)” value is -5.32.

Take G23A G36C: the “polymerase ribozyme fitness (log ratio)” value was -6.17.

Take G23A C49A: the “polymerase ribozyme fitness (log ratio)” value is -5.5.

As to A24U C53U, the “polymerase ribozyme fitness (log ratio)” value was -6.23.

G23A C62A: the “polymerase ribozyme fitness (log ratio)” value was -7.09.

In the case of C22U C40G G63A A74U A75U, the “polymerase ribozyme fitness (log ratio)” value was -5.63.

Take C22U G93A: the “polymerase ribozyme fitness (log ratio)” value was -3.97.

In the case of C22U G93U, the “polymerase ribozyme fitness (log ratio)” value is -5.26.

As for G23U G120C, the “polymerase ribozyme fitness (log ratio)” value is -3.8.

On to C22U C34U C73U A83C C124G, for which the “polymerase ribozyme fitness (log ratio)” value is -6.07.

Take C22G U38A G61U C124U: the “polymerase ribozyme fitness (log ratio)” value is -3.08.

As to C22U G60C, the “polymerase ribozyme fitness (log ratio)” value was -4.82.

For the variant C22G G47U, the “polymerase ribozyme fitness (log ratio)” value was -4.11.

As for G23U A26C A43U G93A G117C, the “polymerase ribozyme fitness (log ratio)” value was -7.04.

In the case of C22U G71A U78A, the “polymerase ribozyme fitness (log ratio)” value was -4.62.

As for C22U A43G G61A C115A, the “polymerase ribozyme fitness (log ratio)” value was -5.11.

With A24U C72G A95C G110U, the “polymerase ribozyme fitness (log ratio)” value was -7.4.

For the variant C22U U59C A100C, the “polymerase ribozyme fitness (log ratio)” value is -3.95.

C22G G45A U54A A95C C114U: the “polymerase ribozyme fitness (log ratio)” value was -5.19.

C22U U81A C88G: the “polymerase ribozyme fitness (log ratio)” value was -5.9.

In the case of C22G C123A, the “polymerase ribozyme fitness (log ratio)” value is -3.18.

As for C22G C123U, the “polymerase ribozyme fitness (log ratio)” value is -2.66.

Turning to A24G G42U G60U A66U C88G A121G, the “polymerase ribozyme fitness (log ratio)” value is -3.8.

Turning to A24C U38G C89U G113U, the “polymerase ribozyme fitness (log ratio)” value was -6.49.

For A24G G58U, the “polymerase ribozyme fitness (log ratio)” value was -1.2.

In the case of A24G U55G, the “polymerase ribozyme fitness (log ratio)” value is -1.71.

With A24C C49U C82U, the “polymerase ribozyme fitness (log ratio)” value was -5.77.

In the case of C22G U96G C104G, the “polymerase ribozyme fitness (log ratio)” value is -5.47.

Consider C22U A100C, for which the “polymerase ribozyme fitness (log ratio)” value was -4.93.

Turning to G25C C56U A68U A83G C123A C124G, the “polymerase ribozyme fitness (log ratio)” value is -6.66.

As to C22G G23A G52C, the “polymerase ribozyme fitness (log ratio)” value was -3.57.

On to C22U A37U C56U, for which the “polymerase ribozyme fitness (log ratio)” value was -5.01.

As to G23A C56G A95U U112A G127C, the “polymerase ribozyme fitness (log ratio)” value was -6.5.

Consider C22G C56U, for which the “polymerase ribozyme fitness (log ratio)” value is -3.32.

C22G U87G G113U A119G G127C: the “polymerase ribozyme fitness (log ratio)” value was -4.58.

Turning to G23A U38A G58C A121C C124A, the “polymerase ribozyme fitness (log ratio)” value was -6.22.

On to C22U A26U U54G A118U, for which the “polymerase ribozyme fitness (log ratio)” value was -4.35.

As for G23A C115U, the “polymerase ribozyme fitness (log ratio)” value was -3.88.

As to A24U G122U, the “polymerase ribozyme fitness (log ratio)” value was -5.4.

As to G25C C28A G48U G71U C73G G113U, the “polymerase ribozyme fitness (log ratio)” value is -6.43.

Turning to A24U A41C G42U C62G A83G C94G C123A G127A, the “polymerase ribozyme fitness (log ratio)” value is -6.99.

As to A24C C101G U112G, the “polymerase ribozyme fitness (log ratio)” value was -6.34.

Regarding C22U A26G A119G G122A C123A, the “polymerase ribozyme fitness (log ratio)” value was -2.69.

For G25A A74U A100C U109A U130A, the “polymerase ribozyme fitness (log ratio)” value is -6.43.

Regarding C22G G57A C124U, the “polymerase ribozyme fitness (log ratio)” value was -2.07.

Take A24G G71U C86G: the “polymerase ribozyme fitness (log ratio)” value was -3.88.

As to G23U G44C C53G C94A U106G G113A, the “polymerase ribozyme fitness (log ratio)” value is -7.53.

Regarding A24G A50C G63U A118U G122A, the “polymerase ribozyme fitness (log ratio)” value is -7.26.

With C22U U55G C123A, the “polymerase ribozyme fitness (log ratio)” value is -4.35.

Turning to G25C C89A, the “polymerase ribozyme fitness (log ratio)” value was -7.16.

Turning to A24C A91U G117U C123G, the “polymerase ribozyme fitness (log ratio)” value is -7.92.

Consider C22G C62G, for which the “polymerase ribozyme fitness (log ratio)” value is -4.53.

As to C22G C62A, the “polymerase ribozyme fitness (log ratio)” value is -3.99.

As for A24G G52A C115U, the “polymerase ribozyme fitness (log ratio)” value is -2.59.

Take C22G C70A: the “polymerase ribozyme fitness (log ratio)” value was -4.66.

C22U A37G G61U U112C U126G G128A: the “polymerase ribozyme fitness (log ratio)” value was -4.46.

Take A24G G69A C82A A95C G120A: the “polymerase ribozyme fitness (log ratio)” value is -4.87.

As for C22U C73U U78A C89G U112A C124A, the “polymerase ribozyme fitness (log ratio)” value was -6.98.

Consider A24G C85G, for which the “polymerase ribozyme fitness (log ratio)” value is -2.32.

On to A24G C85A, for which the “polymerase ribozyme fitness (log ratio)” value is -3.6.

In the case of C22G G44U U109G G110C, the “polymerase ribozyme fitness (log ratio)” value is -5.8.

In the case of G25A C72U, the “polymerase ribozyme fitness (log ratio)” value is -5.57.

In the case of G25A C72A, the “polymerase ribozyme fitness (log ratio)” value was -5.51.

As for C22G C53U, the “polymerase ribozyme fitness (log ratio)” value is -4.09.

Take C22U A37U G57A C115A: the “polymerase ribozyme fitness (log ratio)” value was -4.73.

On to G23A C28G G69U U78G C79U U112C G128U U133G, for which the “polymerase ribozyme fitness (log ratio)” value is -5.41.

For the variant A24G G61A A84U C85A, the “polymerase ribozyme fitness (log ratio)” value is -2.08.

Take G23U C62A C99A G113U G127C: the “polymerase ribozyme fitness (log ratio)” value was -5.56.

In the case of C22G C62G C104U G120A, the “polymerase ribozyme fitness (log ratio)” value is -4.19.

C22U C115G: the “polymerase ribozyme fitness (log ratio)” value is -4.6.

G23C C85G C97A G120C: the “polymerase ribozyme fitness (log ratio)” value is -7.88.

For A24G C64U, the “polymerase ribozyme fitness (log ratio)” value is -1.79.

Turning to C22G U106A, the “polymerase ribozyme fitness (log ratio)” value was -2.37.

Turning to C22G G39U, the “polymerase ribozyme fitness (log ratio)” value was -3.5.

As for G25A G44U G52U C62U A105G U112A, the “polymerase ribozyme fitness (log ratio)” value is -7.09.

As to G23A C56G C76U G110A G117A C124G, the “polymerase ribozyme fitness (log ratio)” value is -7.16.

As to C22U U78C, the “polymerase ribozyme fitness (log ratio)” value is -3.42.

Consider C22U, for which the “polymerase ribozyme fitness (log ratio)” value was -3.85.

Take A24G G39A C70U A121G: the “polymerase ribozyme fitness (log ratio)” value was -0.648.

For the variant A24G C62U U81A, the “polymerase ribozyme fitness (log ratio)” value is -3.04.

As for G25C A46U G61C C62A G113A C124A, the “polymerase ribozyme fitness (log ratio)” value is -8.51.

Turning to C22U C53U, the “polymerase ribozyme fitness (log ratio)” value is -4.37.

For the variant C22G C79A C94U G110U A119G U133A, the “polymerase ribozyme fitness (log ratio)” value is -3.44.

For the origin of these results see the RNAGym collection of RNA variant scans (doi:10.1073/pnas.2313332121).
